According to the supplement of paper PMC9112550, “Optimization of the antimicrobial peptide Bac7 by deep mutational scanning” (BMC Biology, 2022):

Test system: Escherichia coli TOP10
Test: shrunken log2 fold change of peptide-encoding DNA abundance (4.5 h post-induction vs induction); higher = less antimicrobial activity (less host growth inhibition)
Conditions: time post-induction: 4.5 h; library: site-saturation at positions 5, 18, 19, 20
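Further: peptides expressed intracellularly from a pBAD plasmid library in pooled LB shake-flask culture, induced with 0.3% L-arabinose, DNA abundance read by NGS, three biological replicates, DESeq2 with apeglm shrinkage.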

Sequence	shrunken log2 fold change
RRIRDRPPRLPRPRPRPTDPPRP	0.0862
RRIRDRPPRLPRPRPRPTGTPRP	0.0829
RRIRDRPPRLPRPRPRPTHEPRP	1.09
RRIRDRPPRLPRPRPRPTIHPRP	-0.128
RRIRDRPPRLPRPRPRPTKLPRP	0.0975
RRIRDRPPRLPRPRPRPTLIPRP	0.0896
RRIRDRPPRLPRPRPRPTLRPRP	0.129
RRIRDRPPRLPRPRPRPTNNPRP	0.0553
RRIRDRPPRLPRPRPRPTQQPRP	0.248
RRIRDRPPRLPRPRPRPTVNPRP	0.0689
RRIRDRPPRLPRPRPRPVAFPRP	0.589
RRIRDRPPRLPRPRPRPVCHPRP	-0.0164
RRIRDRPPRLPRPRPRPVDKPRP	-0.01
RRIRDRPPRLPRPRPRPVDNPRP	0.0262
RRIRDRPPRLPRPRPRPVEDPRP	0.429
RRIRDRPPRLPRPRPRPVFCPRP	0.0325
RRIRDRPPRLPRPRPRPVGAPRP	0.825
RRIRDRPPRLPRPRPRPVGGPRP	2.15
RRIRDRPPRLPRPRPRPVHKPRP	-0.233
RRIRDRPPRLPRPRPRPVISPRP	0.277
RRIRDRPPRLPRPRPRPVLFPRP	0.13
RRIRDRPPRLPRPRPRPVLGPRP	0.162

Sequence	shrunken log2 fold change
RRIRDRPPRLPRPRPRPVLYPRP	-0.166
RRIRDRPPRLPRPRPRPVNFPRP	0.0142
RRIRDRPPRLPRPRPRPVQHPRP	-0.012
RRIRDRPPRLPRPRPRPVSAPRP	0.666
RRIRDRPPRLPRPRPRPVSMPRP	-0.0171
RRIRDRPPRLPRPRPRPVSYPRP	-0.0715
RRIRDRPPRLPRPRPRPVTHPRP	-0.0987
RRIRDRPPRLPRPRPRPVTKPRP	-0.173
RRIRDRPPRLPRPRPRPVWLPRP	0.105
RRIRDRPPRLPRPRPRPVWQPRP	0.63
RRIRDRPPRLPRPRPRPVWSPRP	0.065
RRIRDRPPRLPRPRPRPVWTPRP	0.0494
RRIRDRPPRLPRPRPRPVYEPRP	-0.105
RRIRDRPPRLPRPRPRPWADPRP	-0.00486
RRIRDRPPRLPRPRPRPWAQPRP	0.18
RRIRDRPPRLPRPRPRPWATPRP	0.0691
RRIRDRPPRLPRPRPRPWCIPRP	-0.383
RRIRDRPPRLPRPRPRPWCNPRP	-0.378
RRIRDRPPRLPRPRPRPWCPPRP	-0.422
RRIRDRPPRLPRPRPRPWEDPRP	0.0111
RRIRDRPPRLPRPRPRPWEVPRP	-0.0135
RRIRDRPPRLPRPRPRPWFIPRP	-0.157

Sequence	shrunken log2 fold change
RRIRDRPPRLPRPRPRPWGCPRP	0.166
RRIRDRPPRLPRPRPRPWGKPRP	-0.194
RRIRDRPPRLPRPRPRPWGLPRP	0.0419
RRIRDRPPRLPRPRPRPWHFPRP	-0.01
RRIRDRPPRLPRPRPRPWIGPRP	0.0362
RRIRDRPPRLPRPRPRPWKIPRP	0.0112
RRIRDRPPRLPRPRPRPWKPPRP	-0.35
RRIRDRPPRLPRPRPRPWKRPRP	-0.0239
RRIRDRPPRLPRPRPRPWKVPRP	-0.0565
RRIRDRPPRLPRPRPRPWLEPRP	0.098
RRIRDRPPRLPRPRPRPWLIPRP	-0.138
RRIRDRPPRLPRPRPRPWNGPRP	-0.176
RRIRDRPPRLPRPRPRPWNRPRP	-0.339
RRIRDRPPRLPRPRPRPWRGPRP	0.196
RRIRDRPPRLPRPRPRPWRMPRP	-0.397
RRIRDRPPRLPRPRPRPWRWPRP	0.196
RRIRDRPPRLPRPRPRPWSDPRP	-0.0204
RRIRDRPPRLPRPRPRPWTVPRP	-0.168
RRIRDRPPRLPRPRPRPWVDPRP	-0.0979
RRIRDRPPRLPRPRPRPWVRPRP	-0.21
RRIRDRPPRLPRPRPRPWWPPRP	0.0881
RRIRDRPPRLPRPRPRPYAAPRP	-0.2

Sequence	shrunken log2 fold change
RRIRDRPPRLPRPRPRPYAEPRP	0.247
RRIRDRPPRLPRPRPRPYAFPRP	-0.187
RRIRDRPPRLPRPRPRPYANPRP	-0.209
RRIRDRPPRLPRPRPRPYAQPRP	-0.156
RRIRDRPPRLPRPRPRPYCTPRP	-0.253
RRIRDRPPRLPRPRPRPYDDPRP	-0.00157
RRIRDRPPRLPRPRPRPYDIPRP	-0.00136
RRIRDRPPRLPRPRPRPYGAPRP	0.00308
RRIRDRPPRLPRPRPRPYHTPRP	-0.403
RRIRDRPPRLPRPRPRPYHYPRP	-0.688
RRIRDRPPRLPRPRPRPYIKPRP	-0.565
RRIRDRPPRLPRPRPRPYIYPRP	-0.184
RRIRDRPPRLPRPRPRPYKMPRP	-0.17
RRIRDRPPRLPRPRPRPYLVPRP	-0.506
RRIRDRPPRLPRPRPRPYPAPRP	-0.15
RRIRDRPPRLPRPRPRPYPFPRP	-0.671
RRIRDRPPRLPRPRPRPYPNPRP	-0.0838
RRIRDRPPRLPRPRPRPYQTPRP	-0.0929
RRIRDRPPRLPRPRPRPYREPRP	-0.748
RRIRDRPPRLPRPRPRPYTNPRP	-0.647
RRIRDRPPRLPRPRPRPYWLPRP	-0.236
RRIRDRPPRLPRPRPRPYYIPRP	-0.0955

Sequence	shrunken log2 fold change
RRIRERPPRLPRPRPRPAEFPRP	0.00307
RRIRERPPRLPRPRPRPAESPRP	-0.049
RRIRERPPRLPRPRPRPAFMPRP	-0.154
RRIRERPPRLPRPRPRPAICPRP	-0.141
RRIRERPPRLPRPRPRPAIIPRP	-0.259
RRIRERPPRLPRPRPRPAKQPRP	0.00996
RRIRERPPRLPRPRPRPALGPRP	0.37
RRIRERPPRLPRPRPRPALQPRP	0.22
RRIRERPPRLPRPRPRPANEPRP	-0.916
RRIRERPPRLPRPRPRPAPLPRP	0.324
RRIRERPPRLPRPRPRPAPWPRP	0.203
RRIRERPPRLPRPRPRPAQGPRP	0.473
RRIRERPPRLPRPRPRPARMPRP	0.0587
RRIRERPPRLPRPRPRPARYPRP	0.24
RRIRERPPRLPRPRPRPASCPRP	-0.211
RRIRERPPRLPRPRPRPASEPRP	-0.123
RRIRERPPRLPRPRPRPASPPRP	-0.165
RRIRERPPRLPRPRPRPATLPRP	-0.274
RRIRERPPRLPRPRPRPATPPRP	1.31
RRIRERPPRLPRPRPRPAWQPRP	-0.109
RRIRERPPRLPRPRPRPAYIPRP	-0.168
